The values that follow come from the supplement of paper PMC7877785.

The nature of the data set: self-splicing fitness, log relative to wild type (ln ratio); higher = more splicing; Tetrahymena group I intron in knt gene, E. coli kanamycin selection, DiMSum; sequences stand for … in CUCUCU…GGAGGGAAAAGUUAUCAGGCAUGCACCUGGUAGCUAGUCUUUAAACCAAUAGAUUGCAUCGGUUUAAAAGGCAAGACCGUCAAAUUGCGGGAAAGGGGUCAACAGCCGUUCAGUACCAAGUCUCAGGGGAAACUUUGAGAUGGCCUUGCAAAGGGUAUGGUAAUAAGCUGACGGACAUGGUCCUAACCACGCAGCCAAGUCCUAAGUCAACAGAUCUUCUGUUGAUAUGGAUGCAGUUCACAGACUAAAUGUCGGUCGGGGAAGAUGUAUUCUUCUCAUAAGAUAUAGUCGGACCUCUCCUUAAUGGGAGCUAGCGGAUGAAGUGAUGCAACACUGGAGCCGCUGGGAACUAAUUUGUAUGCGAAAGUAUAUUGAUUAGUUUUGGAGUACUCGUGGUCG
The procedure, abridged:
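A randomised library covering all eight P1ex-region intron nucleotides was built with the intron in the knt kanamycin-resistance gene on pET-22b(+) and held in E. coli BL21(DE3). Cells were grown overnight at 37°C or 30°C on LB agar, with or without 25 μg/mL kanamycin, plus 100 μg/mL carbenicillin, 50 μM IPTG and 0.2% rhamnose, and pooled colonies were amplicon-sequenced on an Illumina HiSeq 2500. DiMSum fitness is the error-weighted combination of wild-type-normalised replicate fold changes, kanamycin versus none.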

± gives the uncertainty stated by the source.

For CGCCAGCAAUAUUACGCACC, the “self-splicing fitness (ln)” value by setting is: (30 °C) -2.37 ± 0.17; (37 °C) -2.33 ± 0.35.

With CGCCAGCAAUAUUACGCAUA, the “self-splicing fitness (ln)” value is -3.34 ± 0.24 (30 °C) and -1.86 ± 0.2 (37 °C).

Turning to CGCCAGCAAUAUUACGCCUA, the “self-splicing fitness (ln)” value is, setting by setting: (30 °C) -3 ± 0.36; (37 °C) -1.98 ± 0.32.

On to CGCCAGCAAUAUUACGCGCA, for which the “self-splicing fitness (ln)” value by setting is: (30 °C) -1.98 ± 0.13; (37 °C) -0.948 ± 0.13.

As for CGCCAGCAAUAUUACGCGCG, the “self-splicing fitness (ln)” value is -3.57 ± 0.16 (30 °C) and -3.7 ± 0.27 (37 °C).

As for CGCCAGCAAUAUUACGCUAC, the “self-splicing fitness (ln)” value was -3.74 ± 0.36 (30 °C) and -2.58 ± 0.28 (37 °C).

With CGCCAGCAAUAUUACGCUCA, the “self-splicing fitness (ln)” value is -0.656 ± 0.073 (30 °C) and 0.163 ± 0.083 (37 °C).

Regarding CGCCAGCAAUAUUACGCUUA, the “self-splicing fitness (ln)” value was -3.1 ± 0.21 (30 °C) and -1.87 ± 0.17 (37 °C).

On to CGCCAGCAAUAUUACGGCAG, for which the “self-splicing fitness (ln)” value is -2.3 ± 0.11 (30 °C) and -1.02 ± 0.12 (37 °C).

Take CGCCAGCAAUAUUACGGCUG: the “self-splicing fitness (ln)” value is, setting by setting: (30 °C) -4.51 ± 0.36; (37 °C) -1.67 ± 0.19.

Turning to CGCCAGCAAUAUUACGGUCG, the “self-splicing fitness (ln)” value runs as follows: (30 °C) -4.17 ± 0.19; (37 °C) -2.5 ± 0.2.

As for CGCCAGCAAUAUUACGGUUG, the “self-splicing fitness (ln)” value was -3.7 ± 0.17 (30 °C) and -1.78 ± 0.15 (37 °C).

Regarding CGCCAGCAAUAUUACGUAAA, the “self-splicing fitness (ln)” value was -3.21 ± 0.19 (30 °C) and -1.46 ± 0.13 (37 °C).

CGCCAGCAAUAUUACGUACA: the “self-splicing fitness (ln)” value reads like this: (30 °C) -2.74 ± 0.2; (37 °C) -0.166 ± 0.17.

Regarding CGCCAGCAAUAUUACGUAUA, the “self-splicing fitness (ln)” value (30 °C) was -4.14 ± 0.23 and the “self-splicing fitness (ln)” value (37 °C) was -3.42 ± 0.23.

CGCCAGCAAUAUUACGUCGU: the “self-splicing fitness (ln)” value (30 °C) was -3.29 ± 0.15 and the “self-splicing fitness (ln)” value (37 °C) is -2.35 ± 0.16.

CGCCAGCAAUAUUACGUGGG: the “self-splicing fitness (ln)” value was -3.79 ± 0.19 (30 °C) and -2.38 ± 0.19 (37 °C).

As to CGCCAGCAAUAUUACGUGUA, the “self-splicing fitness (ln)” value reads like this: (30 °C) -3.04 ± 0.097; (37 °C) -1.04 ± 0.072.

In the case of CGCCAGCAAUAUUACGUUCU, the “self-splicing fitness (ln)” value is -3.88 ± 0.26 (30 °C) and -1.89 ± 0.17 (37 °C).

For the sequence CGCCAGCAAUAUUACGUUUA, the “self-splicing fitness (ln)” value is, setting by setting: (30 °C) -3.18 ± 0.15; (37 °C) -2.83 ± 0.17.

CGCCAGCAAUAUUACGUUUU: the “self-splicing fitness (ln)” value was -3.8 ± 0.15 (30 °C) and -2.76 ± 0.16 (37 °C).

On to CGCGAGCAAUAUUACGACUG, for which the “self-splicing fitness (ln)” value was 0.265 ± 0.17 (30 °C) and 0.0174 ± 0.17 (37 °C).

Regarding CGCGAGCAAUAUUACGAGCG, the “self-splicing fitness (ln)” value (30 °C) was -3.55 ± 0.28 and the “self-splicing fitness (ln)” value (37 °C) was -2.37 ± 0.3.

CGCGAGCAAUAUUACGCCGG: the “self-splicing fitness (ln)” value is, setting by setting: (30 °C) -2.19 ± 0.25; (37 °C) -1.58 ± 0.44.

As to CGCGAGCAAUAUUACGCUGC, under “30 °C”, the “self-splicing fitness (ln)” value is -2.91 ± 0.28.

CGCGAGCAAUAUUACGCUGU: the “self-splicing fitness (ln)” value (30 °C) was -2.6 ± 0.16 and the “self-splicing fitness (ln)” value (37 °C) was -2.74 ± 0.31.

As for CGCGAGCAAUAUUACGGAGC, the “self-splicing fitness (ln)” value (37 °C) is -1.99 ± 0.26.

On to CGCGAGCAAUAUUACGGCGC, for which the “self-splicing fitness (ln)” value was -2.93 ± 0.23 (30 °C) and -2.88 ± 0.31 (37 °C).

Consider CGCGAGCAAUAUUACGGCGG, for which the “self-splicing fitness (ln)” value by setting is: (30 °C) -1.64 ± 0.12; (37 °C) -0.636 ± 0.17.

Regarding CGCGAGCAAUAUUACGGCUU, the “self-splicing fitness (ln)” value (30 °C) is -3.01 ± 0.42 and the “self-splicing fitness (ln)” value (37 °C) was -2.54 ± 0.26.

Take CGCGAGCAAUAUUACGGGGC: the “self-splicing fitness (ln)” value (30 °C) is -3.26 ± 0.26.

In the case of CGCGAGCAAUAUUACGGUCU, the “self-splicing fitness (ln)” value (30 °C) was -3.82 ± 0.2 and the “self-splicing fitness (ln)” value (37 °C) was -0.953 ± 0.15.

As to CGCGAGCAAUAUUACGGUGA, the “self-splicing fitness (ln)” value is -2.81 ± 0.14 (30 °C) and -1.7 ± 0.11 (37 °C).

Regarding CGCGAGCAAUAUUACGUAUC, the “self-splicing fitness (ln)” value is, setting by setting: (30 °C) -3.93 ± 0.34; (37 °C) -3.93 ± 0.36.
